Results reported in the RNAGym collection of RNA variant scans (doi:10.1093/molbev/msab373).

B1: Azoarcus group I ribozyme (parent)
chain: GUGCCUUGCGCCGGGAAACCACGCAAGGGAUGGUGUCAAAUUCGGCGAAACCUAAGCGCCCGCCCGGGCGUAUGGCAACGCCGAGCCAAGCUUCGGCGCCUGCGCCGAUGAAGGUGUAGAGACUAGACGGCACCCACCUAAGGCAAACGCUAUGGUGAAGGCAUAGUCCAGGGAGUGGCGAAAGUCACACAAACCGG

Variants of: B1
Assay: reverse-splicing fitness (ratio to wild type); higher = more active; in vitro selection; Mg2+ level not given
In short: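 An in vitro group I ribozyme library with randomized positions was T7-transcribed and gel-purified. In triplicate, 10 pmol RNA in EPPS pH 7.5 was reacted with 50 pmoles of a 30-nt RNA substrate for 1 h at 37 °C across several added MgCl2 levels (1–48 mM), then stopped with EDTA. Products were reverse transcribed from a substrate-complementary primer, PCR-amplified and sequenced (HiSeq 4000). Fitness is a variant's read proportion after selection over that before, normalised to wild type.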

Variant	reverse-splicing fitness
GUGCCUUGCGCCGGGAAACCACGCAAGGGAUGGUGUCAAAUUCGGCGAAACCUAAGCGCCCGCCCGGGCGUAUGGCAACGCGGAGCCAAGCUUCGGCGCCUGCGCCGAUGCAGGUGUAGAGACUAGACGGCACCCACCUAAGGCCAACGCUAUGGUGAAGGCAUAGUCCAGGGAGGGGCGAAAGUCACACAAACCGG	0.0504
GUGCCUUGCGCCGGGAAACCACGCAAGGGAUGGUGUCAAAUUCGGCGAAACCUAAGCGCCCGCCCGGGCGUAUGGCAACGCGGAGCCAAGCUUCGGCGCCUGCGCCGAUGCAGGUGUAGAGACUAGACGGCACCCACCUAAGGCCAACGCUAUGGUGAAGGCAUAGUCCAGGGAGCGGCGAAAGUCACACAAACCGG	0.137
GUGCCUUGCGCCGGGAAACCACGCAAGGGAUGGUGUCAAAUUCGGCGAAACCUAAGCGCCCGCCCGGGCGUAUGGCAACGCGGAGCCAAGCUUCGGCGCCUGCGCCGAUGCAGGUGUAGAGACUAGACGGCACCCACCUAAGGCCAACGCUAUGGUGAAGGCAUAGUCCAGGGAGAGGCGAAAGUCACACAAACCGG	0.126
GUGCCUUGCGCCGGGAAACCACGCAAGGGAUGGUGUCAAAUUCGGCGAAACCUAAGCGCCCGCCCGGGCGUAUGGCAACGCGGAGCCAAGCUUCGGCGCCUGCGCCGAUGCAGGUGUAGAGACUAGACGGCACCCACCUAAGGCCAACGUUAUGGUGAAGGCAUAGUCCAGGGAGGGGCGAAAGUCACACAAACCGG	0.0162
GUGCCUUGCGCCGGGAAACCACGCAAGGGAUGGUGUCAAAUUCGGCGAAACCUAAGCGCCCGCCCGGGCGUAUGGCAACGCGGAGCCAAGCUUCGGCGCCUGCGCCGAUGCAGGUGUAGAGACUAGACGGCACCCACCUAAGGCCAACGUUAUGGUGAAGGCAUAGUCCAGGGAGCGGCGAAAGUCACACAAACCGG	0.044
GUGCCUUGCGCCGGGAAACCACGCAAGGGAUGGUGUCAAAUUCGGCGAAACCUAAGCGCCCGCCCGGGCGUAUGGCAACGCGGAGCCAAGCUUCGGCGCCUGCGCCGAUGCAGGUGUAGAGACUAGACGGCACCCACCUAAGGCCAACGUUAUGGUGAAGGCAUAGUCCAGGGAGAGGCGAAAGUCACACAAACCGG	0.0341
GUGCCUUGCGCCGGGAAACCACGCAAGGGAUGGUGUCAAAUUCGGCGAAACCUAAGCGCCCGCCCGGGCGUAUGGCAACGCGGAGCCAAGCUUCGGCGCCUGCGCCGAUGCAGGUGUAGAGACUAGACGGCACCCACCUAAGGCCAACGCUAUGGUGAAGGCAUAGUCGAGGGAGCGGCGAAAGUCACACAAACCGG	0.0197
GUGCCUUGCGCCGGGAAACCACGCAAGGGAUGGUGUCAAAUUCGGCGAAACCUAAGCGCCCGCCCGGGCGUAUGGCAACGCGGAGCCAAGCUUCGGCGCCUGCGCCGAUGCAGGUGUAGAGACUAGACGGCACCCACCUAAGGCCAACGCUAUGGUGAAGGCAUAGUCGAGGGAGAGGCGAAAGUCACACAAACCGG	0.0274
GUGCCUUGCGCCGGGAAACCACGCAAGGGAUGGUGUCAAAUUCGGCGAAACCUAAGCGCCCGCCCGGGCGUAUGGCAACGCGGAGCCAAGCUUCGGCGCCUGCGCCGAUGCAGGUGUAGAGACUAGACGGCACCCACCUAAGGCCAACGCUAUGGUGAAGGCAUAGUCGAGGGAGGGGCGAAAGUCACACAAACCGG	0.00663
GUGCCUUGCGCCGGGAAACCACGCAAGGGAUGGUGUCAAAUUCGGCGAAACCUAAGCGCCCGCCCGGGCGUAUGGCAACGCGGAGCCAAGCUUCGGCGCCUGCGCCGAUGCAGGUGUAGAGACUAGACGGCACCCACCUAAGGCCAACGCUAUGGUGAAGGCAUAGUCUAGGGAGUGGCGAAAGUCACACAAACCGG	0.0125
GUGCCUUGCGCCGGGAAACCACGCAAGGGAUGGUGUCAAAUUCGGCGAAACCUAAGCGCCCGCCCGGGCGUAUGGCAACGCGGAGCCAAGCUUCGGCGCCUGCGCCGAUGCAGGUGUAGAGACUAGACGGCACCCACCUAAGGCCAACGCUAUGGUGAAGGCAUAGUCGAGGGAGUGGCGAAAGUCACACAAACCGG	0.00898
GUGCCUUGCGCCGGGAAACCACGCAAGGGAUGGUGUCAAAUUCGGCGAAACCUAAGCGCCCGCCCGGGCGUAUGGCAACGCGGAGCCAAGCUUCGGCGCCUGCGCCGAUGCAGGUGUAGAGACUAGACGGCACCCACCUAAGGCCAACGCUAUGGUGAAGGCAUAGUCAAGGGAGUGGCGAAAGUCACACAAACCGG	0.00847
GUGCCUUGCGCCGGGAAACCACGCAAGGGAUGGUGUCAAAUUCGGCGAAACCUAAGCGCCCGCCCGGGCGUAUGGCAACGCGGAGCCAAGCUUCGGCGCCUGCGCCGAUGCAGGUGUAGAGACUAGACGGCACCCACCUAAGGCGAACGAUAUGGUGAAGGCAUAGUCGAGGGAGUGGCGAAAGUCACACAAACCGG	0.00789
GUGCCUUGCGCCGGGAAACCACGCAAGGGAUGGUGUCAAAUUCGGCGAAACCUAAGCGCCCGCCCGGGCGUAUGGCAACGCGGAGCCAAGCUUCGGCGCCUGCGCCGAUGCAGGUGUAGAGACUAGACGGCACCCACCUAAGGCGAACGAUAUGGUGAAGGCAUAGUCUAGGGAGUGGCGAAAGUCACACAAACCGG	0.00998
GUGCCUUGCGCCGGGAAACCACGCAAGGGAUGGUGUCAAAUUCGGCGAAACCUAAGCGCCCGCCCGGGCGUAUGGCAACGCGGAGCCAAGCUUCGGCGCCUGCGCCGAUGCAGGUGUAGAGACUAGACGGCACCCACCUAAGGCGAACGAUAUGGUGAAGGCAUAGUCAAGGGAGUGGCGAAAGUCACACAAACCGG	0.00903
